# In patent publication US12180485B2, “Repressible control of gene expression” (TRUSTEES OF BOSTON UNIVERSITY, priority 2020, dated 2024):
# “Also recorded” adds a separate entry of the source.
# B1: SEQ ID NO: 800: inducible system polypeptide, probably Table 20 (GID-GAI) (protein)
# chain: MAPKKKRKVGIHGVPAAKRDHHHHHHQDKKTMMMNEEDDGNGMDELLAVLGYKVRSSEMADVAQKLEQLEVMMSNVQEDDLSQLATETVHYNPAELYTWLDSMLTDLNSGGSGSGSSGGSGTALADTFSLDENGNKLKKGKHGMRNFIINNVISNKRFHYLIRYGDPAHLHEIAKNEAVVKFVLGRIADIQKKQGQNGKNQIDRYYETCIGKDKGKSVSEKVDALTKIITGMNYDQFDKKRSVIEDTGRENAEREKFKKIISLYLTVIYHILKNIVNINARYVIGFHCVERDAQLYKEKGYDINLKKLEEKGFSSVTKLCAGIDETAPDKRKDVEKEMAERAKESIDSLESANPKLYANYIKYSDEKKAEEFTRQINREKAKTALNAYLRNTKWNVIIREDLLRIDNKTCTLFRNKAVHLEVARYVHAYINDIAEVNSYFQLYHYIMQRIIMNERYEKSSGKVSEYFDAVNDEKKYNDRLLKLLCVPFGYCIPRFKNLSIEALFDRNEAAKFDKEKKKVSGNSSGSGPKKKRKV
# B2: 177/178: RfxCas13d split pair at 177/178 (protein)
# chain 1: IEKKKSFAKGMGVKSTLVSGSKVYMTTFAEGSDARLEKIVEGDSIRSVNEGEAFSAEMADKNAGYKIGNAKFSHPKGYAVVANNPLYTGPVQQDMLGLKETLEKRYFGESADGNDNICIQVIHNILDIEKILAEYITNAAYAVNNISGLDKDIIGFGKFSTVYTYDEFKDPEHHRAA
# chain 2: FNNNDKLINAIKAQYDEFDNFLDNPRLGYFGQAFFSKEGRNYIINYGNECYDILALLSGLRHWVVHNNEEESRISRTWLYNLDKNLDNEYISTLNYLYDRITNELTNSFSKNSAANVNYIAETLGINPAEFAEQYFRFSIMKEQKNLGFNITKLREVMLDRKDMSEIRKNHKVFDSIRTKVYTMMDFVIYRYYIEEDAKVAAANKSLPDNEKSLSEKDIFVINLRGSFNDDQKDALYYDEANRIWRKLENIMHNIKEFRGNKTREYKKKDAPRLPRILPAGRDVSAFSKLMYALTMFLDGKEINDLLTTLINKFDNIQSFLKVMPLIGVNAKFVEEYAFFKDSAKIADELRLIKSFARMGEPIADARRAMYIDAIRILGTNLSYDELKALADTFSLDENGNKLKKGKHGMRNFIINNVISNKRFHYLIRYGDPAHLHEIAKNEAVVKFVLGRIADIQKKQGQNGKNQIDRYYETCIGKDKGKSVSEKVDALTKIITGMNYDQFDKKRSVIEDTGRENAEREKFKKIISLYLTVIYHILKNIVNINARYVIGFHCVERDAQLYKEKGYDINLKKLEEKGFSSVTKLCAGIDETAPDKRKDVEKEMAERAKESIDSLESANPKLYANYIKYSDEKKAEEFTRQINREKAKTALNAYLRNTKWNVIIREDLLRIDNKTCTLFRNKAVHLEVARYVHAYINDIAEVNSYFQLYHYIMQRIIMNERYEKSSGKVSEYFDAVNDEKKYNDRLLKLLCVPFGYCIPRFKNLSIEALFDRNEAAKFDKEKKKVSGNS
# B3: 559/560: RfxCas13d split between residues 559/560; N and C fragments plain or fused to CID domains (protein)
# chain 1: IEKKKSFAKGMGVKSTLVSGSKVYMTTFAEGSDARLEKIVEGDSIRSVNEGEAFSAEMADKNAGYKIGNAKFSHPKGYAVVANNPLYTGPVQQDMLGLKETLEKRYFGESADGNDNICIQVIHNILDIEKILAEYITNAAYAVNNISGLDKDIIGFGKFSTVYTYDEFKDPEHHRAAFNNNDKLINAIKAQYDEFDNFLDNPRLGYFGQAFFSKEGRNYIINYGNECYDILALLSGLRHWVVHNNEEESRISRTWLYNLDKNLDNEYISTLNYLYDRITNELTNSFSKNSAANVNYIAETLGINPAEFAEQYFRFSIMKEQKNLGFNITKLREVMLDRKDMSEIRKNHKVFDSIRTKVYTMMDFVIYRYYIEEDAKVAAANKSLPDNEKSLSEKDIFVINLRGSFNDDQKDALYYDEANRIWRKLENIMHNIKEFRGNKTREYKKKDAPRLPRILPAGRDVSAFSKLMYALTMFLDGKEINDLLTTLINKFDNIQSFLKVMPLIGVNAKFVEEYAFFKDSAKIADELRLIKSFARMGEPIADARRAMYIDAIRILGTNL
# chain 2: SYDELKALADTFSLDENGNKLKKGKHGMRNFIINNVISNKRFHYLIRYGDPAHLHEIAKNEAVVKFVLGRIADIQKKQGQNGKNQIDRYYETCIGKDKGKSVSEKVDALTKIITGMNYDQFDKKRSVIEDTGRENAEREKFKKIISLYLTVIYHILKNIVNINARYVIGFHCVERDAQLYKEKGYDINLKKLEEKGFSSVTKLCAGIDETAPDKRKDVEKEMAERAKESIDSLESANPKLYANYIKYSDEKKAEEFTRQINREKAKTALNAYLRNTKWNVIIREDLLRIDNKTCTLFRNKAVHLEVARYVHAYINDIAEVNSYFQLYHYIMQRIIMNERYEKSSGKVSEYFDAVNDEKKYNDRLLKLLCVPFGYCIPRFKNLSIEALFDRNEAAKFDKEKKKVSGNS
# B4: 384/385: RfxCas13d split pair at 384/385 (protein)
# chain 1: IEKKKSFAKGMGVKSTLVSGSKVYMTTFAEGSDARLEKIVEGDSIRSVNEGEAFSAEMADKNAGYKIGNAKFSHPKGYAVVANNPLYTGPVQQDMLGLKETLEKRYFGESADGNDNICIQVIHNILDIEKILAEYITNAAYAVNNISGLDKDIIGFGKFSTVYTYDEFKDPEHHRAAFNNNDKLINAIKAQYDEFDNFLDNPRLGYFGQAFFSKEGRNYIINYGNECYDILALLSGLRHWVVHNNEEESRISRTWLYNLDKNLDNEYISTLNYLYDRITNELTNSFSKNSAANVNYIAETLGINPAEFAEQYFRFSIMKEQKNLGFNITKLREVMLDRKDMSEIRKNHKVFDSIRTKVYTMMDFVIYRYYIEEDAKVAAANKSL
# chain 2: PDNEKSLSEKDIFVINLRGSFNDDQKDALYYDEANRIWRKLENIMHNIKEFRGNKTREYKKKDAPRLPRILPAGRDVSAFSKLMYALTMFLDGKEINDLLTTLINKFDNIQSFLKVMPLIGVNAKFVEEYAFFKDSAKIADELRLIKSFARMGEPIADARRAMYIDAIRILGTNLSYDELKALADTFSLDENGNKLKKGKHGMRNFIINNVISNKRFHYLIRYGDPAHLHEIAKNEAVVKFVLGRIADIQKKQGQNGKNQIDRYYETCIGKDKGKSVSEKVDALTKIITGMNYDQFDKKRSVIEDTGRENAEREKFKKIISLYLTVIYHILKNIVNINARYVIGFHCVERDAQLYKEKGYDINLKKLEEKGFSSVTKLCAGIDETAPDKRKDVEKEMAERAKESIDSLESANPKLYANYIKYSDEKKAEEFTRQINREKAKTALNAYLRNTKWNVIIREDLLRIDNKTCTLFRNKAVHLEVARYVHAYINDIAEVNSYFQLYHYIMQRIIMNERYEKSSGKVSEYFDAVNDEKKYNDRLLKLLCVPFGYCIPRFKNLSIEALFDRNEAAKFDKEKKKVSGNS
# B5: 655/656: RfxCas13d split pair at 655/656, plain or fused to CID domains (protein)
# chain 1: IEKKKSFAKGMGVKSTLVSGSKVYMTTFAEGSDARLEKIVEGDSIRSVNEGEAFSAEMADKNAGYKIGNAKFSHPKGYAVVANNPLYTGPVQQDMLGLKETLEKRYFGESADGNDNICIQVIHNILDIEKILAEYITNAAYAVNNISGLDKDIIGFGKFSTVYTYDEFKDPEHHRAAFNNNDKLINAIKAQYDEFDNFLDNPRLGYFGQAFFSKEGRNYIINYGNECYDILALLSGLRHWVVHNNEEESRISRTWLYNLDKNLDNEYISTLNYLYDRITNELTNSFSKNSAANVNYIAETLGINPAEFAEQYFRFSIMKEQKNLGFNITKLREVMLDRKDMSEIRKNHKVFDSIRTKVYTMMDFVIYRYYIEEDAKVAAANKSLPDNEKSLSEKDIFVINLRGSFNDDQKDALYYDEANRIWRKLENIMHNIKEFRGNKTREYKKKDAPRLPRILPAGRDVSAFSKLMYALTMFLDGKEINDLLTTLINKFDNIQSFLKVMPLIGVNAKFVEEYAFFKDSAKIADELRLIKSFARMGEPIADARRAMYIDAIRILGTNLSYDELKALADTFSLDENGNKLKKGKHGMRNFIINNVISNKRFHYLIRYGDPAHLHEIAKNEAVVKFVLGRIADIQKKQGQNGKNQIDRYYETCIGK
# chain 2: DKGKSVSEKVDALTKIITGMNYDQFDKKRSVIEDTGRENAEREKFKKIISLYLTVIYHILKNIVNINARYVIGFHCVERDAQLYKEKGYDINLKKLEEKGFSSVTKLCAGIDETAPDKRKDVEKEMAERAKESIDSLESANPKLYANYIKYSDEKKAEEFTRQINREKAKTALNAYLRNTKWNVIIREDLLRIDNKTCTLFRNKAVHLEVARYVHAYINDIAEVNSYFQLYHYIMQRIIMNERYEKSSGKVSEYFDAVNDEKKYNDRLLKLLCVPFGYCIPRFKNLSIEALFDRNEAAKFDKEKKKVSGNS
# Assays:
# [1] = tested on: mCherry expression in HEK293 FT cells; experiment: Inducible split RfxCas13d (GIB, RAP, ABA, Dano, GRZ CID domains; NES/NLS variants) mCherry knockdown, leakiness and inducibility; type: cell-based; conditions: inducible polypeptide systems of Tables 18-22
# How it was run: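 mCherry knockdown in HEK293 FT cells by split RfxCas13d halves fused to GIB, RAP, ABA, Dano or GRZ dimerization domains, scored with and without inducer. Leakiness score and induced activity were derived per split site; NES/NLS compartmentalization and reversed CID orientation were also tested.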
# mCherry = mCherry knockdown by inducible split RfxCas13d (ON switch) in transfected HEK 293 FT cells, flow cytometry; type: cell-based; conditions: for knockdown with assistance of gRNA: mCherry; for performance after NES/NLS compartmentalization: GIB induced split pairs, NES on one moiety, NLS on the other; for knockdown across the various CID systems: split pairs coupled with CID domains, with inducer
Molecule,knockdown with assistance of gRNA (mCherry),performance after NES/NLS compartmentalization (mCherry),knockdown across the various CID systems (mCherry),also measured
B1,,,,performance in the tested conditions [1]: highest performance
B2,relatively efficient knockdown,,,
B3,,high inducibility with minimal leakiness,efficient knockdown; also recorded: consistently strong drug-induced knockdown,"induced knockdown (mCherry; Danoprevir-inducible, 2 NESs on N terminal moiety and 2 NLSs on C terminal moiety): over 60%; performance of reversed CID orientation versus original orientation (mCherry; GIB: N ss-GAI/GID-ss C, ABA: N ss-PYL/ABI-ss C): stronger inducibility and weaker leakiness; target knockdown efficiency (mCherry; split pair): more than 80%"
B4,relatively efficient knockdown,,,
B5,,high inducibility with minimal leakiness,efficient knockdown; also recorded: consistently strong drug-induced knockdown,
